Data on two molecules can be found in PMC7026639.

Read-outs that look alike come from different tables or passages of the source.

For series [1], the target named is T1, HhaI restriction endonuclease (R.HhaI) (Haemophilus haemolyticus NEB129 (now …, UniProt A0ABF7PI58 1-258)). The series can be described thus: X-ray crystallography.
In series [2] the target is T1, HhaI restriction endonuclease (R.HhaI). In words: X-ray crystallography. The source holds these as a separate data set.

B1: 14-bp cognate oligo (dsDNA)
DNA 1: TCCAAGCGCAACAG
DNA 2: CTGTTGCGCTTGGA
B1: in series [1], the binding result is listed as “binds”.

B2: 13-bp iodo oligo (dsDNA)
DNA 1: TCCAAGCGCAACG
DNA 2: CGUTGCGCTUGGA
modifications: 5-iodo-uridine at positions 3 and 10 of strand 2 (printed as I, written as U)
In the case of B2, the binding result in series [2] was “binds”.
